Test results: patent publication US20120316071A1 (published 2012)

T1: rHuman Erythropoietin R/Fc Chimera, CF (R&D Systems Cat#963-ER) (human, UniProt P19235 25-250)
T1 construct: Bought recombinant protein; also called EPO R; EPO R/Fc; Fc part of the bought chimera not given
T1 sequence (looked up): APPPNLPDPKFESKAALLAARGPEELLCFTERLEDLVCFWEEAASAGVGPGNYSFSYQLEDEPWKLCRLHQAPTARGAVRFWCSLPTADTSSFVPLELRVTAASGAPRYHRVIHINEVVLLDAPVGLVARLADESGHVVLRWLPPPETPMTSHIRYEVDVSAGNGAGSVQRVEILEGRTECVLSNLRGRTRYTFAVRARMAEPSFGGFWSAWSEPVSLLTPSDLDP


Tests used:
[1] = molecular target: T2, rHuman CD44/Fc Chimera, CF (R&D Systems Cat#3660-CD) (human, UniProt P16070 21-220); assay: MSD Multispot ECL, antigen spotted on plate, Fab 8.1 nM; blank spot 435
T2 construct: Bought reagent; Fc part of the bought chimera not given

[2] = molecular target: T3, rHuman EGF R/Fc Chimera, CF (R&D Systems Cat#344-ER) (human, UniProt P00533 25-645); assay: as above
T3 construct: Bought reagent; also called epidermal growth factor receptor; Fc part of the bought chimera not given

[3] = molecular target: T1, rHuman Erythropoietin R/Fc Chimera, CF …; assay: ECL multispot (MSD), antigen spotted on plate, Fab at 500.00 (column head: Fab [µM])
[4] = molecular target: T4, rHuman Notch-1/Fc Chimera, CF (R&D Systems Cat#3647-TK) (human, UniProt P46531 19-526); assay: as above
T4 construct: Bought recombinant chimera; Fc part of the bought chimera not given

[5] = molecular target: T5, rHuman IGF-1 sR (insulin-like growth factor-1 soluble receptor), CF (R&D Systems Cat#391-GR) (human, UniProt P08069 31-932); assay: as above
T5 construct: Bought recombinant soluble receptor

[6] = molecular target: T6, rHuman P-Cadherin/Fc Chimera, CF (R&D Systems Cat#861-PC) (human, UniProt P22223 108-654); assay: as above
T6 construct: Bought recombinant protein; Fc part of the bought chimera not given

[7] = molecular target: T7, Recombinant Human DLL4 (R&D Systems Cat#1506-D4/CF) (human, UniProt Q9NR61 27-524); assay: as above
T7 construct: Bought recombinant protein; also called delta-like protein 4; rHuman DLL4

[8] = molecular target: T8, rHuman ErbB2/Fc Chimera, CF (R&D Systems Cat#1129-ER) (human, UniProt P04626 23-652); assay: as above
T8 construct: Bought recombinant protein; Fc part of the bought chimera not given

[9] = molecular target: T9, rHuman CD44/Fc Chimera, CF (R&D Systems Cat#3660-CD) (human, UniProt P16070 21-220); assay: as above
T9 construct: Bought recombinant protein; Fc part of the bought chimera not given

[10] = molecular target: T10, rHuman EGF R/Fc Chimera, CF (R&D Systems Cat#344-ER) (human, UniProt P00533 25-645); assay: as above
T10 construct: Bought recombinant protein; Fc part of the bought chimera not given

[11] = molecular target: T1, rHuman Erythropoietin R/Fc Chimera, CF …; assay: ECL multispot (MSD), antigen spotted on plate, Fab at 5.00 (column head: Fab [µM])
[12] = molecular target: T4, rHuman Notch-1/Fc Chimera, CF (R&D …); assay: as above
[13] = molecular target: T5, rHuman IGF-1 sR (insulin-like growth …); assay: as above
[14] = molecular target: T11, rHuman HGF R/c-MET/Fc Chimera, CF (R&D Systems Cat#358-MT/CF) (human, UniProt P08581 25-932); assay: as above
T11 construct: Bought recombinant protein; also called HGF R/Fc; Fc part of the bought chimera not given

[15] = molecular target: T6, rHuman P-Cadherin/Fc Chimera, CF (R&D …); assay: as above
[16] = molecular target: T7, Recombinant Human DLL4 (R&D Systems …); assay: as above
[17] = molecular target: T8, rHuman ErbB2/Fc Chimera, CF (R&D …); assay: as above
[18] = molecular target: T9, rHuman CD44/Fc Chimera, CF (R&D Systems …); assay: as above
[19] = molecular target: T10, rHuman EGF R/Fc Chimera, CF (R&D …); assay: as above

T11 sequence (P08581 25-932, change not shown): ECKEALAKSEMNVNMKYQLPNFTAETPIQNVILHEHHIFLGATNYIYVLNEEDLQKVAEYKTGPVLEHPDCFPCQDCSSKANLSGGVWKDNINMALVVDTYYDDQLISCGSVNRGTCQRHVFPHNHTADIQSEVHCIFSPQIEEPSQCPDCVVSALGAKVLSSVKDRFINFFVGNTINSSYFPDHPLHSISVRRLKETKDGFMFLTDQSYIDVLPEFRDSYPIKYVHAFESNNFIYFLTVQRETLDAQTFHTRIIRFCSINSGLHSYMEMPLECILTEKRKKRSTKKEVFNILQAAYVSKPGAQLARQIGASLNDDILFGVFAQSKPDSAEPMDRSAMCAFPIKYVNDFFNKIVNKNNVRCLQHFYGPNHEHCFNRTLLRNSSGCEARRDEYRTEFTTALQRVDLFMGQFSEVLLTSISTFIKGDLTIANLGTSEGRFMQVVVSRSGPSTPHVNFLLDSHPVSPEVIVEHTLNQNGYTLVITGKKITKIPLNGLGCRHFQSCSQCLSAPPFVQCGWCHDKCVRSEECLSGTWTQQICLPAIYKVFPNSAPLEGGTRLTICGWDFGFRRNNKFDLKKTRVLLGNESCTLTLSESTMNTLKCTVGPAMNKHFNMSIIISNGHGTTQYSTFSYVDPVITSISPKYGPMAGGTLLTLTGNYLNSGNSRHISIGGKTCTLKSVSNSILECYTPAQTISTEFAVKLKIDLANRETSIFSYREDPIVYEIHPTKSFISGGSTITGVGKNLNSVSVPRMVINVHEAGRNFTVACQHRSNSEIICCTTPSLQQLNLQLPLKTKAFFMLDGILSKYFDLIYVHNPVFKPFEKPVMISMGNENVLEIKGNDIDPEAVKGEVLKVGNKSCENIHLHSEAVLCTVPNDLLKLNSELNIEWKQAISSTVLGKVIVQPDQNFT

ECL signal [1] | ECL signal [2] | signal/noise ratio (ECL) [3] | signal/noise ratio (ECL) [4] | signal/noise ratio (ECL) [5] | signal/noise ratio (ECL) [6] | signal/noise ratio (ECL) [7] | signal/noise ratio (ECL) [8] | signal/noise ratio (ECL) [9] | signal/noise ratio (ECL) [10] | signal/noise ratio (ECL) [11] | signal/noise ratio (ECL) [12] | signal/noise ratio (ECL) [13] | signal/noise ratio (ECL) [14] | signal/noise ratio (ECL) [15] | signal/noise ratio (ECL) [16] | signal/noise ratio (ECL) [17] | signal/noise ratio (ECL) [18] | signal/noise ratio (ECL) [19] | Binder
528 | 560 |  |  |  |  |  |  |  |  |  |  |  |  |  |  |  |  |  | Fab VH1-8_IGHD2-2*01_IGHJ6*01 & L12_IGKJ1*01 (Fab, V domains shown) VH: QVQLVQSGAEVKKPGASVKVSCKASGYTFTSYDINWVRQATGQGLEWMGWMNPNSGNTGYAQKFQGRVTMTRNTSISTAYMELSSLRSEDTAVYYCARGGYCSSTSCYADYYYYYGMDVWGQGTTVTVSS VL: not shown
 |  | 0.8 | 0.8 | 0.4 | 0.2 | 16.2 | 0.3 | 0.4 | 0.7 | 1.1 | 0.8 | 1.1 | 0.9 | 0.9 | 32.5 | 1 | 1.3 | 1 | Fab VH1-46_IGHD6-6*01_IGHJ1*01 & L6_IGKJ1*01 (Fab, V domains shown, Tested as a Fab expressed in E. coli; The heavy chain came from Plasmid A (CH1 with His6 and Flag tags) and the kappa light chain from Plasmid C (kappa CL); also called Wt; wildtype) VH: QVQLVQSGAEVKKPGASVKVSCKASGYTFTSYYMHWVRQAPGQGLEWMGIINPSGGSTSYAQKFQGRVTMTRDTSTSTVYMELSSLRSEDTAVYYCAREEYSSSSAEYFQHWGQGTLVTVSS VL: not shown
 |  | 10.4 | 4.2 | 1.5 | 3.4 | 181 | 1.7 | 2.4 | 5.5 | 1.8 | 0.9 | 1.1 | 0.8 | 1 | 482 | 1.1 | 1.3 | 1.1 | Fab VH1-46_IGHD6-6*01_IGHJ1*01 S102A/S103P/S104F (APF) & L6_IGKJ1*01 (Fab, V domains shown, Tested as a Fab expressed in E. coli; the constant parts (CH1 with His6/Flag tags, kappa CL) come from Plasmids A and C; also called APF triple mutant; H:APF & L:wt) VH: QVQLVQSGAEVKKPGASVKVSCKASGYTFTSYYMHWVRQAPGQGLEWMGIINPSGGSTSYAQKFQGRVTMTRDTSTSTVYMELSSLRSEDTAVYYCAREEYAPFSAEYFQHWGQGTLVTVSS VL: not shown
